# B1: Beta-1,3-galactosyl-O-glycosyl-glycoprotein beta-1,6-N-acetylglucosaminyltransferase (Homo sapiens), Q02742 (parent)
# chain: MLRTLLRRRLFSYPTKYYFMVLVLSLITFSVLRIHQKPEFVSVRHLELAGENPSSDINCTKVLQGDVNEIQKVKLEILTVKFKKRPRWTPDDYINMTSDCSSFIKRRKYIVEPLSKEEAEFPIAYSIVVHHKIEMLDRLLRAIYMPQNFYCIHVDTKSEDSYLAAVMGIASCFSNVFVASRLESVVYASWSRVQADLNCMKDLYAMSANWKYLINLCGMDFPIKTNLEIVRKLKLLMGENNLETERMPSHKEERWKKRYEVVNGKLTNTGTVKMLPPLETPLFSGSAYFVVSREYVGYVLQNEKIQKLMEWAQDTYSPDEYLWATIQRIPEVPGSLPASHKYDLSDMQAVARFVKWQYFEGDVSKGAPYPPCDGVHVRSVCIFGAGDLNWMLRKHHLFANKFDVDVDLFAIQCLDEHLRHKALETLKH
# Variants of: B1
# Conditions: with golp3_human GOLPH3, Q9H4A6
# Chain of golp3_human GOLPH3, Q9H4A6 (Q9H4A6 whole entry): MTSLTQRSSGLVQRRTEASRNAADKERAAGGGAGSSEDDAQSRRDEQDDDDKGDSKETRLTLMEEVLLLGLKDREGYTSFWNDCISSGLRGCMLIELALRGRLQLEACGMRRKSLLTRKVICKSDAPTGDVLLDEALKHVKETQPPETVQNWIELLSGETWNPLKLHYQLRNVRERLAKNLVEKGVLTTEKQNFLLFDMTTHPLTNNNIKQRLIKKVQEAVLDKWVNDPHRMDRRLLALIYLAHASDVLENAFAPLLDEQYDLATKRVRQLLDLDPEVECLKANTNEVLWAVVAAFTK
row,effect of a mutation on the interaction,Variant
1,disrupting interaction strength,MLRTAARRRLFSYPTKYYFMVLVLSLITFSVLRIHQKPEFVSVRHLELAGENPSSDINCTKVLQGDVNEIQKVKLEILTVKFKKRPRWTPDDYINMTSDCSSFIKRRKYIVEPLSKEEAEFPIAYSIVVHHKIEMLDRLLRAIYMPQNFYCIHVDTKSEDSYLAAVMGIASCFSNVFVASRLESVVYASWSRVQADLNCMKDLYAMSANWKYLINLCGMDFPIKTNLEIVRKLKLLMGENNLETERMPSHKEERWKKRYEVVNGKLTNTGTVKMLPPLETPLFSGSAYFVVSREYVGYVLQNEKIQKLMEWAQDTYSPDEYLWATIQRIPEVPGSLPASHKYDLSDMQAVARFVKWQYFEGDVSKGAPYPPCDGVHVRSVCIFGAGDLNWMLRKHHLFANKFDVDVDLFAIQCLDEHLRHKALETLKH [L5A;L6A]

# Variants of: B1
# Conditions: with golp3_human GOLPH3, Q9H4A6
# Remark: another data set of the same source
row,effect of a mutation on the interaction,Variant
1,disrupting interaction strength,MLRTLLAAALFSYPTKYYFMVLVLSLITFSVLRIHQKPEFVSVRHLELAGENPSSDINCTKVLQGDVNEIQKVKLEILTVKFKKRPRWTPDDYINMTSDCSSFIKRRKYIVEPLSKEEAEFPIAYSIVVHHKIEMLDRLLRAIYMPQNFYCIHVDTKSEDSYLAAVMGIASCFSNVFVASRLESVVYASWSRVQADLNCMKDLYAMSANWKYLINLCGMDFPIKTNLEIVRKLKLLMGENNLETERMPSHKEERWKKRYEVVNGKLTNTGTVKMLPPLETPLFSGSAYFVVSREYVGYVLQNEKIQKLMEWAQDTYSPDEYLWATIQRIPEVPGSLPASHKYDLSDMQAVARFVKWQYFEGDVSKGAPYPPCDGVHVRSVCIFGAGDLNWMLRKHHLFANKFDVDVDLFAIQCLDEHLRHKALETLKH [R7A;R8A;R9A]

# Reference: IntAct's records for PubMed 23027862
